Test results taken from the Human Domainome abundance scans (Beltran et al. 2025).

B1: Max-interacting protein 1, residues 70 to 120; numbered along this chain, P50539 (parent)
chain: STHNELEKNRRAHLRLCLERLKVLIPLGPDCTRHTTLGLLNKAKAHIKKLE

Variants of: B1
Experiment: abundance fitness (aPCA) (normalised: wild type 0, dead -1); higher = more abundant; growth selection in yeast, the domain comes from the species named
Conditions: Homo sapiens

Abundance fitness, by site and new letter:
T36: I -0.028, V 0.308, A 0.138, G 0.134, F 0.155
R20: H -0.726, P -0.753, G -0.817, W -0.912, E -0.929, A -0.677
V23: G 0.355, L 0.128, T 0.274, D -0.127, H 0.455, I -0.218, F -0.191, Q 0.123
L39: V -0.257, P -0.597, R -0.879, Q -0.894, W 0.127, C -0.588
N4: L -0.48, K -0.168, F -0.713, Q 0.041, E -0.142
R15: H -0.462, T -0.407, K 0.143, V -0.678, M -0.462, Q -0.369, L -0.432, Y -0.941
R10: W 0.163, S -0.217, I -0.289, T 0.309, D -0.545, E -0.71, C -0.071, H -0.068
A43: H -0.828, Y -0.918, S -0.652, K -0.939, D -0.634, Q -0.74
N41: C -0.237, E -0.139, D -0.322, A -0.218, M -0.559, F -0.7, I -0.631
L24: H -0.139, K -0.294, E -0.751, N -0.715, A -0.329, C -0.013, M -0.292
R11: M -0.261, P -0.105, T -0.352, I -0.252, W -0.257, A -0.547
C17: P -0.232, T -0.666, A -0.193, S -0.641, I -0.617, H -0.683
K49: S -0.278, M -0.692, P -0.638, D -1.07, N -0.594, H -1.02, V -0.618
L40: E -0.857, K -0.793, Y -0.617, P -0.89, F 0.033, V -0.099, W 0.323, N -0.584
P29: H 0.262, D -0.387, M 0.282, R 0.216, C 0.181, Q 0.028, Y 0.256, F 0.413
T35: W 0.189, K 0.218, H -0.023, G -0.031, E -0.508, Y 0.279, F 0.198, D -0.377
L27: D -0.512, P 0.359, M -0.031, V -0.009, T 0.074, R 0.308
A12: R -0.327, L -0.651, N -0.185, C -0.426, K -0.048, E -0.432
D30: T 0.128, W 0.034, I 0.151, F 0.036, C -0.07, G 0.178, N 0.229, Q 0.147, P 0.128
T2: D -0.209, Y -0.088, F -0.586, K 0.002
E7: M -0.173, R -0.161, T -0.468, L -0.109, Y -0.205, G -0.099, H -0.3, Q -0.169, N 0.176, K 0.061, S 0.06
H46: K 0.186, V 0.116, A 0.157, R -0.055, F -0.456, S 0.237, N -0.394
L16: G 0.274, V -0.058, R 0.165, E 0.102, F -0.207, D -0.037
I47: A -0.582, M -0.25, V -0.312, P -1.06, Q -0.931, T -0.61, E -0.776
C31: T -0.034, Q 0.072, W 0.19, L 0, Y -0.13, P 0.053, F 0.007, A 0.106, E -0.206, S 0.168
R33: Y -0.107, I -0.691, S -0.44, E -0.667, F -0.129, Q -0.116, T -0.576, H -0.247, D -0.644
L18: D -0.625, M -0.405, E -1.07, Y -0.305, Q -1.08
E5: M 0.119, W -0.435, R -0.27, F -0.514, C -0.991, D -0.021, N 0.282
L21: C -0.503, K -0.739, N -1.17, P -0.978, Q -0.495, G -0.957
K8: V -0.338, G -0.043, M -0.511, I -0.536, L -0.232
K22: P -0.757, G -0.611, I -1.21, D -0.83, S -0.536, T -0.835, R -0.121, M -0.753, C -0.871, N -0.572
L50: G -0.317, Q -0.377, Y -0.351, F 0.259, P -0.353, V -0.616, M -0.446
G28: H -0.147, P -0.015, V 0.273, K 0.362, Q -0.092
L6: E -0.574, V -0.005, R 0.172, G 0.203, M -0.247, K -0.086, F -0.228, W -0.566, I -0.189, D -0.066
H3: A -0.099, E -0.047, N -0.162, C 0.021, V -0.053
P26: G 0.278, D -0.327, I -1.18, C -0.157, E -0.138, W -0.525, M 0.074, F -0.557, Q 0.144
I25: L -0.172, A -0.584, W 0.319, G -0.26
E51: C 0.207, Y 0.374, Q -0.198, W -0.059, M 0.571, V 0.271, S 0.615, A 0.495, G 0.355
S1: E -0.48, H -0.285, N -0.158, L -0.59, W -0.916, T -0.577, F -0.095, Y -0.444, A -0.6, D -0.475
G38: K 0.081, T -0.069, H -0.168, L -0.326, A -0.055, R -0.009, E -0.185
K48: E -0.762, G -0.479, F -0.093, S -0.648, I -0.351, M -0.65
E19: Y -0.79, F -0.623, D -0.252, Q -0.185, R -0.513, C -0.618, I -0.43
H34: D -0.457, Y -0.406, T -0.103, I -0.225, S 0.047
H13: F -0.076, G 0.124, D -0.604, L 0.02
A45: N -0.023, Q 0.085, D -0.617, I 0.043, W -0.483, S -0.262, T -0.027
K42: H -0.813, L -0.641, M -0.452, N -0.598, S -0.338
L14: K -0.625, C -0.315, P -0.064, H -0.143, T -0.368, G -0.265, S -0.299, V -0.356
T32: C 0.268, Q -0.112, D -0.387
L37: S 0.06, P -0.624, Q -0.154, W 0.125, C -0.244, K 0.073
